From publication PMC9927256, “Structural and Functional Characterization of Rv0792c from Mycobacterium tuberculosis: Identifying Small Molecule Inhibitor against HutC Protein” (Microbiology Spectrum, 2022)

Legend:
Rv0792c = target: T1, Rv0792c (Mycobacterium tuberculosis, UniProt O86331); test: […]; EMSA with Cy5-labeled native promoter; assay type: binding
T1 construct: His6-Rv0792c

[1] = target: T2, Rv0792c (HutC, GntR family) (Mycobacterium tuberculosis) (UniProt O86331); test: competitive ALISA
T2 sequence (O86331 whole entry, looked up): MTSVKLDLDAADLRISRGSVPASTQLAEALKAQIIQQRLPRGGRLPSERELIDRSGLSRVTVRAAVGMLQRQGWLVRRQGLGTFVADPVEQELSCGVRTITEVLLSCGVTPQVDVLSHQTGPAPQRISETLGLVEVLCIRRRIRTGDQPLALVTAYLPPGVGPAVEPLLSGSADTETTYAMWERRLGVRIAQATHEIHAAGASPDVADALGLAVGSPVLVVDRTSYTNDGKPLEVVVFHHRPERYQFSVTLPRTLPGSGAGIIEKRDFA

[2] = target: T2, Rv0792c (HutC, GntR family) (Mycobacterium tuberculosis); test: ALISA (plate-immobilized protein)
[3] = target: the molecule itself; test: AUC; sedimentation velocity; Rv0792c at 0.38, 0.76 and 1.52 mg/mL in 25 mM HEPES pH 7.2, 400 mM NaCl, 10% glycerol; 40,000 rpm; absorbance at 280 nm; c(s) analysis with SedFit; S20,w

COc1cc(/C=C(\C#N)C(=O)c2ccc(O)c(O)c2)cc(I)c1O [I-OMe-Tyrphostin, (2E)-2-(3,4-dihydroxybenzoyl)-3-(4-hydroxy-3-iodo-5-methoxyphenyl) acrylonitrile] was tested, and the IC50 (Rv0792c) was ~109 nM.

Molecule “TCTAGTCATTCGTCATAATCCCATCTGTTTCTTCCTCCTTCCGT [Rv0792c_2 aptamer (also Rv0729c_2)]” has an IC50 [1] of 109 nM and a Kd [2] of 51 nM.

B1: Rv0792c from Mycobacterium tuberculosis, wild type, with an amino-terminal histidine tag (natural protein)
chain: MTSVKLDLDAADLRISRGSVPASTQLAEALKAQIIQQRLPRGGRLPSERELIDRSGLSRVTVRAAVGMLQRQGWLVRRQGLGTFVADPVEQELSCGVRTITEVLLSCGVTPQVDVLSHQTGPAPQRISETLGLVEVLCIRRRIRTGDQPLALVTAYLPPGVGPAVEPLLSGSADTETTYAMWERRLGVRIAQATHEIHAAGASPDVADALGLAVGSPVLVVDRTSYTNDGKPLEVVVFHHRPERYQFSVTLPRTLPGSGAGIIEKRDFA
notes: also called His6-Rv0792c; (His)6-Rv0792c; not shown: His6, N-terminal, kept
For B1, the “stoichiometry N” value [3] was 2.
